From patent US20050059089A1 (priority 2003, published 2005)
“Also recorded” adds a separate entry of the source.

Columns and labels:
GPCR142 [1] = target: T1, GPCR142 (Homo sapiens, UniProt Q8TDU9, L329S); assay: Ca2+ mobilization assay (FLIPR), HEK293 cells co-expressing GPCR142 and Gα16; assay type: cell-based; set-up: The complete coding region of human GPCR142 was PCR-amplified from human genomic DNA; expressed in transfected cells; HEK293 co-transfected with Gα16 (Ca2+)
Procedure: Human embryonic kidney (HEK) 293 cells were transfected with GPCR135,.GPCR142 or co-transfected with Gqi5 (Conklin et al. (1993), Nature 363, 274-280) or Gα16 (Amatruda et al. (1991), Proc. Natl. Acad. Sci. U.S.A. 88, 5587-5591) expressing plasmids using LipofectAmine. Two days after transfection, cells were detached with PBS plus 10 mM EDTA. The detached cells were washed with DMEM-F12 medium (without phenol red, Invitrogen) and seeded in black poly-D lysine coated 96-well plates (BD Biosciences, San Jose, Calif.) at a cell density of 50,000 cell/well.

GPCR142 [2] = target: T1, GPCR142; assay: Radioligand binding assay with 125I-relaxin3 (saturation and competition), COS-7 cell membranes; set-up: The complete coding region of human GPCR142 was PCR-amplified from human genomic DNA; expressed in transfected cells; details: competition binding, COS-7 membranes; listed as unlabeled relaxin3
Procedure: The binding mixtures were incubated at room temperature for 1 h and then were filtered through 96-well GFC plates (Packard) and washed with ice-cold washing buffer: 50 mM Tris-HCl, pH 7.4. Fifty microliters of Microscint-40 were added to each well and the plates were counted in a Topcounter NTX (Packard). The radioligand binding results were analyzed using GraphPad PRISM software.
The binding assays were performed at room temperature for an incubation time of one hour. The binding mixtures were then filtered through GFC filters pre-saturated with 0.3 polyethylenimine (Sigma) and washed with cold binding buffer. The bound radioligand was counted in a top counter (TopCount/NTX, Packard) with Microscint-40. The results were analyzed by Prism 3.0 software.

T1 sequence (Q8TDU9 whole entry L329S): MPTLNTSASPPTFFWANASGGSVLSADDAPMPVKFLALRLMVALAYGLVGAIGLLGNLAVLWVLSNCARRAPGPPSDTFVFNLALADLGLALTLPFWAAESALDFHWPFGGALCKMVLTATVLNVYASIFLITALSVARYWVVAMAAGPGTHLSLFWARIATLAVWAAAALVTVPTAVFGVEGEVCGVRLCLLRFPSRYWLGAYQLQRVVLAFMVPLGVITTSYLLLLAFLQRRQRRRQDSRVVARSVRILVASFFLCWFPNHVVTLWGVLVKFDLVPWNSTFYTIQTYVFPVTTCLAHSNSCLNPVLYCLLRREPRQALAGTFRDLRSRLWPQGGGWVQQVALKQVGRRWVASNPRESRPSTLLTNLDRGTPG

## relaxin3: Human relaxin3 (SEQ ID NO: 6), produced recombinantly; mature peptide of A- and B-chain linked by disulfide bridges
GPCR142 [1]
  stimulation of Ca2+ mobilization: stimulated Ca2+ mobilization; also recorded: stimulated a strong Ca^2+ signal; also recorded: stimulates Ca^2+ signaling
GPCR142 [2]
  displacement of 125I-relaxin3 binding to GPCR142: specifically displaced
